Experimental data published in PMC2756588.

T1: Pin3, Q06449
T1 sequence (Q06449 53-122, looked up): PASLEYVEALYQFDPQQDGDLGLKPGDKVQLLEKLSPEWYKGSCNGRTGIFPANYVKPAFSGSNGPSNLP

T2: Bzz1-2, P38822
T2 sequence (P38822 568-633, looked up): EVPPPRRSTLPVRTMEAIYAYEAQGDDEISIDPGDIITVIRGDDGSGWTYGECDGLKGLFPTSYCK

T3: Cyk3, Q07533
T3 sequence (Q07533 1-83, looked up): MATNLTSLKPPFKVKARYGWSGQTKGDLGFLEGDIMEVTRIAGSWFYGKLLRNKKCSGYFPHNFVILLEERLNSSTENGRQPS

T4: Lsb1, P53281
T4 sequence (P53281 45-122, looked up): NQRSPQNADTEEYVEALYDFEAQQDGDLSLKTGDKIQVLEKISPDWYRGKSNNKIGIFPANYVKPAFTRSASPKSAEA

T5: Lsb3, P43603
T5 sequence (P43603 385-451, looked up): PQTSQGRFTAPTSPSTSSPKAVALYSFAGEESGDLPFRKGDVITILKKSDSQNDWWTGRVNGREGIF

T6: Nbp2, Q12163
T6 sequence (Q12163 103-180, looked up): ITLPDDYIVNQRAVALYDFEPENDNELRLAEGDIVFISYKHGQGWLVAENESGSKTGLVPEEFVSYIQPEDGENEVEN

T7: Bzz1-1, P38822
T7 sequence (P38822 478-572, looked up): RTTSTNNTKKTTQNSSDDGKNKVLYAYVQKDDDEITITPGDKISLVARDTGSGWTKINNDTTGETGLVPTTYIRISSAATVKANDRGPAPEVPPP

T8: Bud14, P27637
T8 sequence (P27637 247-328, looked up): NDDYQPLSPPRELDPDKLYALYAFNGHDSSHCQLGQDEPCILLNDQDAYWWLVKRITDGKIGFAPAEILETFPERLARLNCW

T9: Lsb4, P32793
T9 sequence (P32793 402-468, looked up): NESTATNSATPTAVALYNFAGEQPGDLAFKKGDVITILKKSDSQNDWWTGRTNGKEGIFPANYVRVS

T10: Boi1, P38041
T10 sequence (P38041 1-86, looked up): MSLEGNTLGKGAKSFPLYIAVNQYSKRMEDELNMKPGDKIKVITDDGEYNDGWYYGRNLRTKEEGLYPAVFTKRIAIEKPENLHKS

T11: Hse1, P38753
T11 sequence (P38753 208-285, looked up): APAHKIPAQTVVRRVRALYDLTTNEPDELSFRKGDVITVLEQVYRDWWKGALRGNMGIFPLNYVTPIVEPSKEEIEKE

T12: Fus1, P11710
T12 sequence (P11710 432-512, looked up): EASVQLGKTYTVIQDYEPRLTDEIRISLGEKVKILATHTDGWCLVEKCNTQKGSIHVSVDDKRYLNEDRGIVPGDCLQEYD

T13: Myo5, Q04439
T13 sequence (Q04439 1072-1160, looked up): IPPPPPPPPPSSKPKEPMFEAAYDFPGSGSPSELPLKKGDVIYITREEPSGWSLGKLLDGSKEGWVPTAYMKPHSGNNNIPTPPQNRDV

T14: Abp1, P15891
T14 sequence (P15891 535-592, looked up): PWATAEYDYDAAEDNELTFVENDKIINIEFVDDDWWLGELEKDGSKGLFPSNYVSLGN

T15: Sla1-2, P32790
T15 sequence (P32790 60-140, looked up): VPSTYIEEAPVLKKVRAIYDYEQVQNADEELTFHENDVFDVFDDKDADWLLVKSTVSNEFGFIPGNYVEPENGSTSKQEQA

T16: Cdc25, P04821
T16 sequence (P04821 50-136, looked up): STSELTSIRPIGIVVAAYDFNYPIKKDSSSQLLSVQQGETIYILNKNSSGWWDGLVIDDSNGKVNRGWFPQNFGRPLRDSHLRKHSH

T17: Bbc1, P47068
T17 sequence (P47068 1-78, looked up): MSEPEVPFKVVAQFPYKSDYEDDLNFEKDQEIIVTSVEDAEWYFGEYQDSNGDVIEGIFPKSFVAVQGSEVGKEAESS

T18: Hof1, Q05080
T18 sequence (Q05080 590-669, looked up): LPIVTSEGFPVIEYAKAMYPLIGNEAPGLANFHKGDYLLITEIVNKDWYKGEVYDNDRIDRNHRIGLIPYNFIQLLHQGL

T19: Pex13, P80667
T19 sequence (P80667 295-386, looked up): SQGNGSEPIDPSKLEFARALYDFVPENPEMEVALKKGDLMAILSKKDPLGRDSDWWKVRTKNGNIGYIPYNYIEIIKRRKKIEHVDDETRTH

T20: Boi2, P39969
T20 sequence (P39969 32-116, looked up): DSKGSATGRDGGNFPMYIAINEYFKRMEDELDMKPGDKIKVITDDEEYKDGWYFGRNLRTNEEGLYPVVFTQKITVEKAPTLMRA

T21: Sla1-3, P32790
T21 sequence (P32790 344-424, looked up): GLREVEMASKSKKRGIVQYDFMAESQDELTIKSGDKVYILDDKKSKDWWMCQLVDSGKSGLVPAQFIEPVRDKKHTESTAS

B1: unnamed (peptide)
chain: APKHAPPPVPNETDN
B2: unnamed (peptide)
chain: TEVPIPRRPPPPQAA
B3: unnamed (peptide)
chain: KFIPSRPAPKPPSSA
B4: unnamed (peptide)
chain: IPSRPAPKPPSSASA

Target: T1, Pin3, Q06449
Experiment: SPOT array
Conditions: median of control spots 2171

| Binder | SPOT intensity |
| --- | --- |
| B1 | 0 |
| B2 | 0 |
| B3 | 8 |
| B4 | 7 |

Target: T2, Bzz1-2, P38822
Experiment: SPOT array
Conditions: median of control spots 4538

| Binder | SPOT intensity |
| --- | --- |
| B1 | 0 |
| B2 | 0 |
| B3 | 10 |
| B4 | 0 |

Target: T3, Cyk3, Q07533
Experiment: SPOT array
Conditions: median of control spots 1451

| Binder | SPOT intensity |
| --- | --- |
| B1 | 0 |
| B2 | 0 |
| B3 | 0 |
| B4 | 3 |

Target: T4, Lsb1, P53281
Experiment: SPOT array
Conditions: median of control spots 388

| Binder | SPOT intensity |
| --- | --- |
| B1 | 0 |
| B2 | 0 |
| B3 | 692 |
| B4 | 493 |

Target: GST
Experiment: SPOT array
Conditions: median of control spots 978

| Binder | SPOT intensity |
| --- | --- |
| B1 | 0 |
| B2 | 3 |
| B3 | 0 |
| B4 | 0 |

Target: Bem1-1, P29366
Sequence (P29366 55-141): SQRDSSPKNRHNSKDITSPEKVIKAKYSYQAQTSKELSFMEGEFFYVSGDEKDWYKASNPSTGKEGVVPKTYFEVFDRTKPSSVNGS
Experiment: SPOT array
Conditions: median of control spots 4282

| Binder | SPOT intensity |
| --- | --- |
| B1 | 0 |
| B2 | 3 |
| B3 | 0 |
| B4 | 2 |

Target: T5, Lsb3, P43603
Experiment: SPOT array
Conditions: median of control spots 406

| Binder | SPOT intensity |
| --- | --- |
| B1 | 0 |
| B2 | 46 |
| B3 | 41 |
| B4 | 10 |

Target: T6, Nbp2, Q12163
Experiment: SPOT array
Conditions: median of control spots 357

| Binder | SPOT intensity |
| --- | --- |
| B1 | 0 |
| B2 | 0 |
| B3 | 2510 |
| B4 | 1230 |

Target: T7, Bzz1-1, P38822
Experiment: SPOT array
Conditions: median of control spots 4446

| Binder | SPOT intensity |
| --- | --- |
| B1 | 0 |
| B2 | 12 |
| B3 | 0 |
| B4 | 6 |

Target: T8, Bud14, P27637
Experiment: SPOT array
Conditions: median of control spots 956

| Binder | SPOT intensity |
| --- | --- |
| B1 | 0 |
| B2 | 0 |
| B3 | 0 |
| B4 | 0 |

Target: T9, Lsb4, P32793
Experiment: SPOT array
Conditions: median of control spots 397

| Binder | SPOT intensity |
| --- | --- |
| B1 | 0 |
| B2 | 108 |
| B3 | 78 |
| B4 | 21 |

Target: T10, Boi1, P38041
Experiment: SPOT array
Conditions: median of control spots 1162

| Binder | SPOT intensity |
| --- | --- |
| B1 | 0 |
| B2 | 0 |
| B3 | 0 |
| B4 | 0 |

Target: T11, Hse1, P38753
Experiment: SPOT array
Conditions: median of control spots 1727

| Binder | SPOT intensity |
| --- | --- |
| B1 | 3 |
| B2 | 0 |
| B3 | 2 |
| B4 | 1 |

Target: T12, Fus1, P11710
Experiment: SPOT array
Conditions: median of control spots 1200

| Binder | SPOT intensity |
| --- | --- |
| B1 | 0 |
| B2 | 0 |
| B3 | 0 |
| B4 | 1 |

Target: T13, Myo5, Q04439
Experiment: SPOT array
Conditions: median of control spots 471

| Binder | SPOT intensity |
| --- | --- |
| B1 | 239 |
| B2 | 141 |
| B3 | 339 |
| B4 | 447 |

Target: Bem1-2, P29366
Sequence (P29366 139-227): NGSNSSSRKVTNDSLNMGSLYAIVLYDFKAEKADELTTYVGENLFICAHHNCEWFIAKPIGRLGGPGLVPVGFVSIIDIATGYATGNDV
Experiment: SPOT array
Conditions: median of control spots 4347

| Binder | SPOT intensity |
| --- | --- |
| B1 | 0 |
| B2 | 0 |
| B3 | 7700 |
| B4 | 2680 |

Target: T14, Abp1, P15891
Experiment: SPOT array
Conditions: median of control spots 935

| Binder | SPOT intensity |
| --- | --- |
| B1 | 0 |
| B2 | 0 |
| B3 | 193 |
| B4 | 54 |

Target: T15, Sla1-2, P32790
Experiment: SPOT array
Conditions: median of control spots 712

| Binder | SPOT intensity |
| --- | --- |
| B1 | 0 |
| B2 | 0 |
| B3 | 0 |
| B4 | 0 |

Target: T16, Cdc25, P04821
Experiment: SPOT array
Conditions: median of control spots 969

| Binder | SPOT intensity |
| --- | --- |
| B1 | 0 |
| B2 | 0 |
| B3 | 0 |
| B4 | 0 |

Target: T17, Bbc1, P47068
Experiment: SPOT array
Conditions: median of control spots 796

| Binder | SPOT intensity |
| --- | --- |
| B1 | 0 |
| B2 | 3 |
| B3 | 316 |
| B4 | 121 |

Target: T18, Hof1, Q05080
Experiment: SPOT array
Conditions: median of control spots 4086

| Binder | SPOT intensity |
| --- | --- |
| B1 | 0 |
| B2 | 0 |
| B3 | 0 |
| B4 | 0 |

Target: Rvs167, P39743
Sequence (P39743 419-482): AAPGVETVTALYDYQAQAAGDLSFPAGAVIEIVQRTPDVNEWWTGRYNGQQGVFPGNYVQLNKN
Experiment: SPOT array
Conditions: median of control spots 2707

| Binder | SPOT intensity |
| --- | --- |
| B1 | 0 |
| B2 | 0 |
| B3 | 7 |
| B4 | 1 |

Target: T19, Pex13, P80667
Experiment: SPOT array
Conditions: median of control spots 1341

| Binder | SPOT intensity |
| --- | --- |
| B1 | 0 |
| B2 | 0 |
| B3 | 221 |
| B4 | 873 |

Target: Sho1, P40073
Sequence (P40073 287-367): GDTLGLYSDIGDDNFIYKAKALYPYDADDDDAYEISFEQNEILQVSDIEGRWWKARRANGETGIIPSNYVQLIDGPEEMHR
Experiment: SPOT array
Conditions: median of control spots 1148

| Binder | SPOT intensity |
| --- | --- |
| B1 | 0 |
| B2 | 0 |
| B3 | 47 |
| B4 | 0 |

Target: T20, Boi2, P39969
Experiment: SPOT array
Conditions: median of control spots 1161

| Binder | SPOT intensity |
| --- | --- |
| B1 | 0 |
| B2 | 0 |
| B3 | 0 |
| B4 | 0 |

Target: Myo3, P36006
Experiment: SPOT array
Conditions: median of control spots 468

| Binder | SPOT intensity |
| --- | --- |
| B1 | 497 |
| B2 | 367 |
| B3 | 527 |
| B4 | 575 |

Target: T21, Sla1-3, P32790
Experiment: SPOT array
Conditions: median of control spots 5475

| Binder | SPOT intensity |
| --- | --- |
| B1 | 0 |
| B2 | 0 |
| B3 | 199 |
| B4 | 29 |
